Reference: the Immune Epitope Database (IEDB)

Key:
Assay in all cases: IEDB peptide-MHC binding, purified MHC/competitive/radioactivity; filed as Kd, often an IC50 or EC50 that approximates it; ≥ and ≤ were set here for values at or beyond the usual limits of such assays
Details in all cases: source organism: Homo sapiens
HLA-B*39:06 = molecular target: HLA-B*39:06
HLA-B*39:01 = molecular target: HLA-B*39:01
HLA-B*38:01 = molecular target: HLA-B*38:01

Row | Sequence | Kd (HLA-B*39:06) [nM] | Kd (HLA-B*39:01) [nM] | Kd (HLA-B*38:01) [nM]
1 | SHLVEALYL | ≥ 35600 | 5250 | 10
2 | TNLFLFLFAV | 354 | 3950 | 6690
3 | SHVAVENAL | 696 | 11 | 321
4 | FLFLFAVG | 405 | 17900 | ≥ 50000
5 | THFPHQVIL | 2600 | 73 | 142
6 | NHSSPCLEQF | ≥ 50000 | ≥ 25700 | 

The next sequences have a lower Kd (HLA-B*39:06) than those just listed; values first:

Row | Kd (HLA-B*39:06) [nM] | Kd (HLA-B*39:01) [nM] | Kd (HLA-B*38:01) [nM] | Sequence
7 | 41 | 62 | ≥ 44500 | MRLLPLLA
8 | 310 | ≥ 30900 | ≥ 50000 | SASIPLTVVA
9 | 41 | 85 |  | NRVMLPKA
10 | 7.4 | 290 | 2760 | FRLLCALTSL
11 | 151 | 660 | 9750 | YHFLQIPT
12 | 14 | 35 | ≥ 50000 | NRVMLPKAA
13 | 155 | 865 | ≥ 50000 | WMRLLPLLA
